Legend:
[1] = molecular target: murine LTBP4 deleted for the 12 amino acids (expressed fragment, FIG. 5) (UniProt Q8K4G1)
[2] = molecular target: murine LTBP4 TP2E fragment (UniProt Q8K4G1)
[3] = system: T1, human LTBP4 TP2E fragment (amino acids 357-586)
T1 sequence: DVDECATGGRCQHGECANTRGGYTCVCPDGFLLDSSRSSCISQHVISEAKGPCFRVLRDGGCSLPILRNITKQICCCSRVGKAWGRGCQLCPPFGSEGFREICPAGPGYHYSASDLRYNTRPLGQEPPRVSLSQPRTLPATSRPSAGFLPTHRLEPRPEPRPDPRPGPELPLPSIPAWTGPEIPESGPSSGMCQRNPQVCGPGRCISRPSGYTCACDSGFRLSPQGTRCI

[4] = molecular target: T2, Murine LTBP4 with the 12-amino-acid insertion (expressed fragment, FIG. 5) (UniProt Q8K4G1)
T2 sequence: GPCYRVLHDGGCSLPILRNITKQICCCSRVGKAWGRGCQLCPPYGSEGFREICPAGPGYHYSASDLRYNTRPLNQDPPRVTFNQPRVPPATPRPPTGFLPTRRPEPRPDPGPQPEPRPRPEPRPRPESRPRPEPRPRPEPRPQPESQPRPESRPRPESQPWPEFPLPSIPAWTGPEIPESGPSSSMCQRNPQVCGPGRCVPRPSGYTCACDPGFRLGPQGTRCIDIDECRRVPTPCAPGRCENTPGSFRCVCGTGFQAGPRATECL

[5] = system: human latent TGFβ binding protein 4 (LTBP4), full-length
human latent TGFβ binding protein 4 (LTBP4), full-length, sequence (chain, as listed by the source): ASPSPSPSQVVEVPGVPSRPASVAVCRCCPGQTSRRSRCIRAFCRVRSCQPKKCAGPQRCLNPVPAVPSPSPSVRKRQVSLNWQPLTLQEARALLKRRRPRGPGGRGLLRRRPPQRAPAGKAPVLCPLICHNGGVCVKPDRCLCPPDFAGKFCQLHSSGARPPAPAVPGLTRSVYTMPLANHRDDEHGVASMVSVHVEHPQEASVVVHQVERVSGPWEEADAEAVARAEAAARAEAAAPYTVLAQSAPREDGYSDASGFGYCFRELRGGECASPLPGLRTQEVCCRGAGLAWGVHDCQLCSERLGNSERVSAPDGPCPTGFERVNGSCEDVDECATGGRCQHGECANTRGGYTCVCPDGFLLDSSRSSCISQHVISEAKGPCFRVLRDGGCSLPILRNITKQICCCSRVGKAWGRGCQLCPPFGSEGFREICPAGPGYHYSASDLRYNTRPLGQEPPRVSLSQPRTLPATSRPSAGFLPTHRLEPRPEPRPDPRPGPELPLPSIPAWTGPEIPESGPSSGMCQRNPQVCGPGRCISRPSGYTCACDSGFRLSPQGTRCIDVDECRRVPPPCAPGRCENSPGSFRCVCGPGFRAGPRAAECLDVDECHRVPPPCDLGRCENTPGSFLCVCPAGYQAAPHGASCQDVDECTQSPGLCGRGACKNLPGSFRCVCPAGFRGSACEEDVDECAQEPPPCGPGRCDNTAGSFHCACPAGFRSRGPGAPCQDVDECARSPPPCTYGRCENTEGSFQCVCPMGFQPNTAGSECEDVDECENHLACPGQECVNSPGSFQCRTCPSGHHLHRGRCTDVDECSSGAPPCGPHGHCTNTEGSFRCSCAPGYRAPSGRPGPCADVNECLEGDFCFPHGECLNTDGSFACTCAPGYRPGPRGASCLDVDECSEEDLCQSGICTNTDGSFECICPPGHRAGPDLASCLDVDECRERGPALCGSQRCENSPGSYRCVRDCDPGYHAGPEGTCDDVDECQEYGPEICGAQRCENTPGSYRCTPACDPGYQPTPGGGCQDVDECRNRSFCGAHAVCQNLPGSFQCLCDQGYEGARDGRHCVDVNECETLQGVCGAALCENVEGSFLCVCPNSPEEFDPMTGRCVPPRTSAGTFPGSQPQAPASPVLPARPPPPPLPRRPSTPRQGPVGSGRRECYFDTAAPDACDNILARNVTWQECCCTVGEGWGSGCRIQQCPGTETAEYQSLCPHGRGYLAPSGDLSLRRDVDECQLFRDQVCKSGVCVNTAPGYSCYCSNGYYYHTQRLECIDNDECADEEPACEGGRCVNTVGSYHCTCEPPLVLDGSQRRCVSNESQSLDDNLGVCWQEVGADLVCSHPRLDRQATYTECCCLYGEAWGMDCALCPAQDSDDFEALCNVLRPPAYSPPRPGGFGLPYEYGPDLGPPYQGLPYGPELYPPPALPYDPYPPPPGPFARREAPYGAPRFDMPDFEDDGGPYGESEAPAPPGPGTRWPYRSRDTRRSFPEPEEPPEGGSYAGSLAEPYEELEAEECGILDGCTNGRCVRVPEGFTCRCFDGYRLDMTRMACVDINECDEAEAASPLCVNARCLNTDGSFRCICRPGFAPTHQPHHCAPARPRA

[6] = system: T3, human LTBP4 proline-rich region fragment (FIG. 5)
T3 sequence: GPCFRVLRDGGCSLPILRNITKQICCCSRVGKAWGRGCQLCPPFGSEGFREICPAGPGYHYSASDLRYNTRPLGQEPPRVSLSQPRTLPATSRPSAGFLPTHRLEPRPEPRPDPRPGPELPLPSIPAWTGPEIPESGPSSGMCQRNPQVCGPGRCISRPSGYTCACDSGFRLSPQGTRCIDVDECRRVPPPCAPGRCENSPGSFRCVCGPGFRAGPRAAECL

plasmin, sequence (P00747 20-580): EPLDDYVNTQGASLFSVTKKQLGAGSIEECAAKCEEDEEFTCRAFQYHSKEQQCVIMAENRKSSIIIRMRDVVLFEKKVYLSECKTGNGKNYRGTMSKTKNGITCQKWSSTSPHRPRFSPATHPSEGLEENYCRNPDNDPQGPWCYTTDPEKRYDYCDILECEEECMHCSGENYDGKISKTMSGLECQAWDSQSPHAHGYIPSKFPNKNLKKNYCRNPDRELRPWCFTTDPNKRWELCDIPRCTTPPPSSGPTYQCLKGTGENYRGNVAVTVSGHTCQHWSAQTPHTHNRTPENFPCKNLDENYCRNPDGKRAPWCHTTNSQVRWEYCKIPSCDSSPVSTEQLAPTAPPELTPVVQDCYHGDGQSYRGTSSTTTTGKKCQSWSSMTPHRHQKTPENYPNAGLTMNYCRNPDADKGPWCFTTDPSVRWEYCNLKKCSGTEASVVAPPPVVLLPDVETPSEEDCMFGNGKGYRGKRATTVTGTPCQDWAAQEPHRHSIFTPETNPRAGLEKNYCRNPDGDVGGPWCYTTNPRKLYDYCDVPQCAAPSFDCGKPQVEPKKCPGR
plasmin, sequence (P00747 581-810): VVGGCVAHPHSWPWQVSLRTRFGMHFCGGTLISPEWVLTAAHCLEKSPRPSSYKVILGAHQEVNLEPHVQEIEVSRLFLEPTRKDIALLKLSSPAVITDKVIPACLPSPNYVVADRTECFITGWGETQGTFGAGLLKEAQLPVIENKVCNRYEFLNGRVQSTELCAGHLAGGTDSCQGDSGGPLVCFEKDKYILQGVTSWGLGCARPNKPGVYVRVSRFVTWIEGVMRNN

Substance | proteolysis of expressed labeled fragment by plasmin [1] | proteolytic digestion of 35S-labeled fragment (dose-response and time course) [2] | proteolytic digestion of 35S-labeled fragment (dose-response and time course) [3] | proteolysis of expressed labeled fragment by plasmin [4] | plasmin proteolysis of full-length LTBP4 [5] | proteolysis of expressed labeled fragment by plasmin [6]
plasmin | the murine LTBP4 deleted for the 12 amino acids was readily degraded | the human TP2E fragment is more readily cleaved than the mouse LTBP4 sequence | the human TP2E fragment is more readily cleaved than the mouse LTBP4 sequence | Murine LTBP4 with the 12-amino-acid insertion was largely resistant to proteolysis | Full-length LTBP4 protein, produced from cultured cells, is also susceptible to plasmin proteolysis | The human LTBP4 was most readily degraded
elastase |  | the human TP2E fragment is more readily cleaved than the mouse LTBP4 sequence | the human TP2E fragment is more readily cleaved than the mouse LTBP4 sequence |  |  | 
